Data: US6441158, “Oligomers that bind to ku protein” (Medical College of Georgia Research Institute, Inc.)

Columns and labels:
[1] = biological target: T1, Ku protein (Ku70/Ku80 heterodimer) (Homo sapiens, UniProt P12956;P13010 P12956:2-609,P13010:2-732); assay: EMSA; conditions: tags: none, purified from HeLa cell nuclear extracts
[2] = biological target: T1, Ku protein (Ku70/Ku80 heterodimer); assay: EMSA; binding comparable to round 6 RNA (about 0.3 nM); conditions: tags: none, purified from HeLa cell nuclear extracts; label: 5'-32P
From the text: Binding curves were obtained with EMSA followed by a nonlinear least squares fit of the data. […] A twenty-one base pair double-stranded DNA was end-labeled with T4 polynucleotide kinase.

[3] = biological target: DNA-PK (Ku protein + DNA-PKcs) (Homo sapiens, UniProt P12956;P13010;P78527 P12956:2-609,P13010:2-732,P78527:1-4128); assay: inhibition; DNA-PK kinase inhibition class A at 16-32 nM RNA; conditions: tags: none, both purified from HeLa cell nuclear extracts
[4] = biological target: T1, Ku protein (Ku70/Ku80 heterodimer); assay: EMSA; 5 mM MgCl2; conditions: tags: none, purified from HeLa cell nuclear extracts
[5] = biological target: T1, Ku protein (Ku70/Ku80 heterodimer); assay: EMSA; printed as SCI; conditions: tags: none, purified from HeLa cell nuclear extracts

T1 sequence (P12956 2-609, chain 1 of 2): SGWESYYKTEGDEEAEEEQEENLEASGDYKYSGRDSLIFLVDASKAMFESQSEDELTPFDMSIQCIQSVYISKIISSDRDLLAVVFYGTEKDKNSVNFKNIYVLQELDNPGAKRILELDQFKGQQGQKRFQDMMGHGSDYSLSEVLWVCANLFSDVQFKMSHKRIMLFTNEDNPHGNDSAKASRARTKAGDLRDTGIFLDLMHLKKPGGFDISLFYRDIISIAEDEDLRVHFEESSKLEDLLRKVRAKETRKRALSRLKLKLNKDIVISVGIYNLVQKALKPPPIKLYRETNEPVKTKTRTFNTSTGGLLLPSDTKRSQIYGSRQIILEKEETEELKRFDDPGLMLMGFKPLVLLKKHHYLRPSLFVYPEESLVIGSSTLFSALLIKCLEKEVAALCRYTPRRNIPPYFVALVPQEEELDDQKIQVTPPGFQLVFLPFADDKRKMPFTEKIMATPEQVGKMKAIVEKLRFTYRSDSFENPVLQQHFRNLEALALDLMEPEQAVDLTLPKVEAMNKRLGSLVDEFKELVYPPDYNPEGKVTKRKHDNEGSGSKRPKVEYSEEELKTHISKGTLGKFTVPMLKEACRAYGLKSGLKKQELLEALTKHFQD
T1 sequence (P13010 2-732, chain 2 of 2): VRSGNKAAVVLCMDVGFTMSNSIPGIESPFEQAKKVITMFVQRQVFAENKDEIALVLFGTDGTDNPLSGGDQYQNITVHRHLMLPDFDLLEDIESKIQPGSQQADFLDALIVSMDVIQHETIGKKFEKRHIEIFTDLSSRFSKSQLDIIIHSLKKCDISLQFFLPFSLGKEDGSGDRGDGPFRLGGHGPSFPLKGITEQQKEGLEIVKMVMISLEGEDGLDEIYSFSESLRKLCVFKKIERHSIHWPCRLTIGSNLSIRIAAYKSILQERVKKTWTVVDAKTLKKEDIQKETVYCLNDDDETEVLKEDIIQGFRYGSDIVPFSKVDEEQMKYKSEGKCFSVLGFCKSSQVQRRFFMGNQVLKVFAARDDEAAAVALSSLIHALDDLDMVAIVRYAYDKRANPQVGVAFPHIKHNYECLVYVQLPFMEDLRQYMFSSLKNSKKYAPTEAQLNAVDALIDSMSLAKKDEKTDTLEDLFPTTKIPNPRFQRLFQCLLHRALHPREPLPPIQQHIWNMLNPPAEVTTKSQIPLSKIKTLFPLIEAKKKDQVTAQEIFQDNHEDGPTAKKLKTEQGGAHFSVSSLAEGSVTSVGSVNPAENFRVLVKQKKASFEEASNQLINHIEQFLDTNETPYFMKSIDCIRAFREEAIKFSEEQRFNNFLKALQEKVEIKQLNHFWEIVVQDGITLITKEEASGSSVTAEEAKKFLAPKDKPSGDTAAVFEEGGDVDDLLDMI

Row | Binder | Kd [1] [nM] | activity [3] [% inhibition] | other results
1 | #52 (ssRNA) RNA: GGGAGGAUAUUUUCUCAGACCGUAACUGAUCGUUCAAUGACUAUUCUUUACCUUGAGUAACCGAUUGCAGCAUCGUGAACUAGGAUC | 3.2 |  | 
2 | 21 bp double-stranded DNA (dsDNA) DNA 1: CTCAGGCGTTGACGACAACCC DNA 2: GGGTTGTCGTCAACGCCTGAG |  |  | binding result [2]: binds
3 | SC3 (ssRNA) RNA: GGGAGGAUAUUUUCUCAGACCGUAACAUUACCACAGUUCUAGCAUCCCGCAAUGGUAAGUCCGCAUUGCAGCAUCGUGAACUAGGAUC | 0.8 |  | 
4 | SC13 (ssRNA) RNA: GGGAGGAUAUUUUCUCAGACCGUAAACCUUUUUAGACGAACCUCAAAGUACAUUUAGUUGAAAACUUGCAGCAUCGUGAACUAGGAUC | 0.8 |  | 
5 | #85 (ssRNA) RNA: GGGAGGAUAUUUUCUCAGACCGUAACAAGUAUCACGCACUUUCCCAUUCACUGUUAGAGACUGAUUGCAGCAUCGUGAACUAGGAUC | 0.7 |  | 
6 | SC11 (ssRNA) RNA: GGGAGGAUAUUUUCUCAGACCGUAACUUAGUUUCGAUCGAAGCUCAUUGGCCCAGCGUGGAUAACUUGCAGCAUCGUGAACUAGGAUC | > 10 |  | 
7 | #7-3 (ssRNA) RNA: GGGAGGAUAUUUUCUCAGACCGUAAAGGUCGGCAUACAGAGUUCCGAAUGCGCGUAACUUCGACUUUGCAGCAUCGUGAACUAGGAUC | 1.8 | ≥ 85 | 
8 | SC12 (ssRNA) RNA: GGGAGGAUAUUUUCUCAGACCGUAACUCGCAACAUGACUUCGAAAGUUUAAUCGUUCUUGUCAAUUGCAGCAUCGUGAACUAGGAUC | 0.5 |  | 
9 | SC2 (ssRNA) RNA: GGGAGGAUAUUUUCUCAGACCGUAACACGCUCUACAACAGAUUGCGAAUUAACUUACGCUUCAUAUUGCAGCAUCGUGAACUAGGAUC | 0.8 | ≥ 85 | 
10 | #1-2 (ssRNA) RNA: GGGAGGAUAUUUUCUCAGACCGUAACAACACCUUGCUUUCCCAAUACCCUGAAAUACAGUCGGAUUUGCAGCAUCGUGAACUAGGAUC | 1.5 | ≥ 85 | 
11 | #84 (ssRNA) RNA: GGGAGGAUAUUUUCUCAGACCGUAAAUCCGCGUACCGGGCUCAAAUGUCACUAUAGUAGAAAGCAUUGCAGCAUCGUGAACUAGGAUC | 1.8 |  | 
12 | #2 (ssRNA) RNA: GGGAGGAUAUUUUCUCAGACCGUAAGCCUAUGCACGGAGCUUUCCCAGCUACAGAUGAAACCAGCUUGCAGCAUCGUGAACUAGGAUC |  | ≥ 85 | Kd [4]: 0.3 nM
13 | #1-17 (ssRNA) RNA: GGGAGGAUAUUUUCUCAGACCGUAAUCCUUAUUUUAUGGCUUUCCCACGCACACAAGCGUCUGCGUUGCAGCAUCGUGAACUAGGAUC | 3.2 |  | 
14 | SC1 (ssRNA) RNA: GGGAGGAUAUUUUCUCAGACCGUAAUUGUUCAACCUUGUCUAACAUGAUACCGAUACGGACUACAUUGCAGCAUCGUGAACUAGGAUC |  |  | Kd [5]: 1.2 nM
15 | #42 (ssRNA) RNA: GGGAGGAUAUUUUCUCAGACCGUAACAUCCUGGUACUCACUUCGACAUCGUACGUUCAAUCAUACUUGCAGCAUCGUGAACUAGGAUC | 4.5 |  | 
16 | SC9 (ssRNA) RNA: GGGAGGAUAUUUUCUCAGACCGUAAUGCCUUUAGCUGCGACAAUGAACAGCAUGACCUCACUACUUGCAGCAUCGUGAACUAGGAUC | 0.6 |  | 
17 | SC5 (ssRNA) RNA: GGGAGGAUAUUUUCUCAGACCGUAACUUGAACAUGAUAGGCUUACCCAUAGACAGAUUGACCCUUUUGCAGCAUCGUGAACUAGGAUC | 2 | ≥ 85 | 
18 | SC6 (ssRNA) RNA: GGGAGGAUAUUUUCUCAGACCGUAAGACUCACGAUGGACCAUACGCCUUCCCACUGGUCUUGUUAUUGCAGCAUCGUGAACUAGGAUC | 2 |  | 
19 | SC4 (ssRNA) RNA: GGGAGGAUAUUUUCUCAGACCGUAACCUAGUCUAAUCGAGGCUUUCCCAGUGACAAUGACCCACUUGCAGCAUCGUGAACUAGGAUC | 1.7 |  | 
20 | SC8 (ssRNA) RNA: GGGAGGAUAUUUUCUCAGACCGUAAGUCCUUCACUAAUGCUUACCAGACACACUAAGAACGUCACUUGCAGCAUCGUGAACUAGGAUC | 0.6 | ≥ 85 | 
